The record followed here is PMC8027947, “Nucleoside Metabolism Is Induced in Common Bean During Early Seedling Development” (Frontiers in Plant Science, 2021).

Substrate in data set [1]: O=c1[nH]c(=O)c2ncn([C@@H]3O[C@H](CO)[C@@H](O)[C@H]3O)c2[nH]1
In words: HPLC of nucleoside hydrolysis, Michaelis-Menten. The format is biochemical, Phaseolus vulgaris. Conditions: 50 mM Tris-HCl pH 7.5, 1 mM DTT, 40 °C, apparent Km. From the text:
(§1) HPLC of nucleoside hydrolysis, Michaelis-Menten on PvNSH2

Substrate in data set [2]: OC[C@H]1O[C@@H](n2cnc3c(O)ncnc32)[C@H](O)[C@@H]1O
In words: HPLC of nucleoside hydrolysis, Michaelis-Menten. Conditions: 50 mM Tris-HCl pH 7.5, 1 mM DTT, 40 °C, apparent Km. Type of data set: biochemical, Phaseolus vulgaris.
From the text: as §1

B1: PvNSH2 (Phaseolus vulgaris) (protein)
chain: MAADTEPKKIIIDTDPGIDDAMAIFVALQSPEIEVIGLTTIYGNVYTTLATRNALHLLEVAGRTDIPVAEGTHLTLTKGTKLRIADFVHGADGLGNQNFPPPKGKPIEESAASFLVRQAKLNPGKVTVVALGPLTNIALAIELDPEFVKNIGQIVILGGAFAVNGNVNPAAEANIFGDPDAADVVFTSGADILALGINVTHQVILTSSDREILASSNGKFAQYLHKILDVYFSYHQESYNTKGVYLHDPTVVLAAVDPSLVTCIEGIVRVQTSGITRGLTLLYNKQKRFGEIHEWSNKPTVKVAVTVDAPRVMKLVMDRLLDS
notes: no N. benthamiana NSH1 detected by MS; locus assigned by print order
As to B1, in data set [1], the Km worked out at 120 ± 20 µM, the kcat is 13.2 ± 0.26 s⁻¹ and the kcat/Km came to 116000 ± 15200 M⁻¹ s⁻¹. In data set [2], the Km came out at 210 ± 20 µM, the kcat is 2.91 ± 0.14 s⁻¹ and the kcat/Km turned out to be 13700 ± 640 M⁻¹ s⁻¹.
